How the values were obtained:
V5-hNMES1 (human) [1] = molecular target: V5-hNMES1 (human) (UniProt Q9C002); assay: IP with IgG control, lysate of 231 cells with V5-NMES1 OE pre-incubated with NM-1; western blot for NMES1; hardly any band
[2] = molecular target: transferrin receptor 1 (TFRC) (human) (UniProt P02786); assay: IP with IgG control, lysate of 231 cells with V5-NMES1 OE pre-incubated with isotype ctrl; western blot for TFRC
[3] = molecular target: transferrin receptor 1 (TFRC) (human) (UniProt P02786); assay: IP with IgG control, lysate of 231 cells with V5-NMES1 OE pre-incubated with NM-1; western blot for TFRC
V5-hNMES1 (human) [4] = molecular target: V5-hNMES1 (human) (UniProt Q9C002); assay: IP with IgG control, lysate of 231 cells with V5-NMES1 OE pre-incubated with isotype ctrl; western blot for NMES1; a band is visible in this control lane

Chain of transferrin receptor 1 (TFRC) (human) (P02786 whole entry): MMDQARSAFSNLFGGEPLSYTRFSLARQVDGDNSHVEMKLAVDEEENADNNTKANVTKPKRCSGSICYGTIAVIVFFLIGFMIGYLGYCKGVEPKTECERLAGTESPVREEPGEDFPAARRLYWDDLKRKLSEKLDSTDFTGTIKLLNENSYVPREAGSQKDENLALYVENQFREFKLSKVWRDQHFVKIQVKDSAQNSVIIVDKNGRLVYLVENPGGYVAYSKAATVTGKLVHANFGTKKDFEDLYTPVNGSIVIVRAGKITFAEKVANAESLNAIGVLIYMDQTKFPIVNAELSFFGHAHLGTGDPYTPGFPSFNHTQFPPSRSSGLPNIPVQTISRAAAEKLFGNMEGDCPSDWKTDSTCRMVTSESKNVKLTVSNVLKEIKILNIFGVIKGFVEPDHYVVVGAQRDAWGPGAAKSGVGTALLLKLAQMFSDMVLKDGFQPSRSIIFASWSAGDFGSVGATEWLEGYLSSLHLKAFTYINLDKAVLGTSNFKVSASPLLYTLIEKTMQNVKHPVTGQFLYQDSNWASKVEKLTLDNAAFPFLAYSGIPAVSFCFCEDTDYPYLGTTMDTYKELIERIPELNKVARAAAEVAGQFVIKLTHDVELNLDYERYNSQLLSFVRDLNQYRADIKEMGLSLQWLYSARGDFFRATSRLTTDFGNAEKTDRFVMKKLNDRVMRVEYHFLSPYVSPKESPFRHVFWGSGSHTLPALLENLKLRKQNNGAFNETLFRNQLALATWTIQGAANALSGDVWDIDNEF
Chain of V5-hNMES1 (human) (Q9C002 whole entry): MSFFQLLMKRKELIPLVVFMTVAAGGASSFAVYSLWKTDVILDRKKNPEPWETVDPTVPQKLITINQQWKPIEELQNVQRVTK

- number under the NMES1 band (band intensity, not named on the sheet) (V5-hNMES1 (human) [1]): 15.8
- number under the TFRC band (band intensity, not named on the sheet) [2]: 24
- number under the TFRC band (band intensity, not named on the sheet) [3]: 27.4
- number under the NMES1 band (band intensity, not named on the sheet) (V5-hNMES1 (human) [4]): 38.5
Substance: isotype IgG control (antibody)

Source: patent US20210371508A1
